Legend:
Ab0223 = assay: BLI 1-pt +indinavir
[1] = target: cyEpCAM ECD Ag0066 (cyno); assay: SPR single-cycle
[2] = target: T1, huEpCAM ECD Ag0065 (human) (UniProt P16422); assay: SPR single-cycle
T1 sequence: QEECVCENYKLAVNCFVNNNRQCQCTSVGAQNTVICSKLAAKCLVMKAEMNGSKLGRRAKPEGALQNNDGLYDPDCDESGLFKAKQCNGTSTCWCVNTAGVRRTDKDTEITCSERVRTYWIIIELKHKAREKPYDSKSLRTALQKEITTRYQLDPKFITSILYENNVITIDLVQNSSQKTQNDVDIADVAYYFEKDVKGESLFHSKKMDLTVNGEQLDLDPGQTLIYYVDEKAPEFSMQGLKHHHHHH

[3] = target: cyEpCAM ECD Ag0066 (cyno); assay: SPR multi-cycle
[4] = target: T1, huEpCAM ECD Ag0065 (human); assay: SPR multi-cycle

Chain of Ab0223 (VH, as listed by the source limits assumed, form in doubt, chain 1 of 2): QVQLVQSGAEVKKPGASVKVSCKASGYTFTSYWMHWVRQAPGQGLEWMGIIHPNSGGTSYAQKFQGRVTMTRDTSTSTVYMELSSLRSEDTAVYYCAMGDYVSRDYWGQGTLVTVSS
Chain of Ab0223 (VL, as listed by the source limits assumed, form in doubt, chain 2 of 2): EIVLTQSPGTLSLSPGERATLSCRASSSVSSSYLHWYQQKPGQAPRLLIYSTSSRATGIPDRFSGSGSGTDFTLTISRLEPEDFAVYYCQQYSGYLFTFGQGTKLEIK

| Binder | Kd (Ab0223) [nM] | Kd [1] [nM] | Kd [2] [nM] | further results |
| --- | --- | --- | --- | --- |
| Ab0935 (antibody, V domains shown) VH: EVQLVESGGGLVQPGGSLRLSCAASGFDFSSASIHWVRQAPGKGLEWVASISPYYGSTYYADSVKGRFTISADTSKNTAYLQMNSLRAEDTAVYYCARYYEWYKYDLYLGSLGFDYWGQGTLVTVSS VL: DIQMTQSPSSLSASVGDRVTITCRASQSVSSAVAWYQQKPGKAPKLLIYSASSLYSGVPSRFSGSRSGTDFTLTISSLQPEDFATYYCQQGGYSLITFGQGTKVEIK | 230 |  |  |  |
| Ab0936 (antibody, V domains shown) VH: EVQLVESGGGLVQPGGSLRLSCAASGFDFSSYSIHWVRQAPGKGLEWVAAISPYYGSTYYADSVKGRFTISADTSKNTAYLQMNSLRAEDTAVYYCARYYEWYKYDLYLGSLGFDYWGQGTLVTVSS VL: DIQMTQSPSSLSASVGDRVTITCRASQSVSSAVAWYQQKPGKAPKLLIYSASSLYSGVPSRFSGSRSGTDFTLTISSLQPEDFATYYCQQGGYSLITFGQGTKVEIK | < 1 |  |  |  |
| Ab0938 (antibody, V domains shown) VH: EVQLVESGGGLVQPGGSLRLSCAASGFDFSSYSIHWVRQAPGKGLEWVASIAPYYGSTYYADSVKGRFTISADTSKNTAYLQMNSLRAEDTAVYYCARYYEWYKYDLYLGSLGFDYWGQGTLVTVSS VL: DIQMTQSPSSLSASVGDRVTITCRASQSVSSAVAWYQQKPGKAPKLLIYSASSLYSGVPSRFSGSRSGTDFTLTISSLQPEDFATYYCQQGGYSLITFGQGTKVEIK | 310 |  |  |  |
| Ab0939 (antibody, V domains shown) VH: EVQLVESGGGLVQPGGSLRLSCAASGFDFSSYSIHWVRQAPGKGLEWVASISAYYGSTYYADSVKGRFTISADTSKNTAYLQMNSLRAEDTAVYYCARYYEWYKYDLYLGSLGFDYWGQGTLVTVSS VL: DIQMTQSPSSLSASVGDRVTITCRASQSVSSAVAWYQQKPGKAPKLLIYSASSLYSGVPSRFSGSRSGTDFTLTISSLQPEDFATYYCQQGGYSLITFGQGTKVEIK | 3.7 |  |  |  |
| Ab0940 (antibody, V domains shown) VH: EVQLVESGGGLVQPGGSLRLSCAASGFDFSSYSIHWVRQAPGKGLEWVASISPYYASTYYADSVKGRFTISADTSKNTAYLQMNSLRAEDTAVYYCARYYEWYKYDLYLGSLGFDYWGQGTLVTVSS VL: DIQMTQSPSSLSASVGDRVTITCRASQSVSSAVAWYQQKPGKAPKLLIYSASSLYSGVPSRFSGSRSGTDFTLTISSLQPEDFATYYCQQGGYSLITFGQGTKVEIK | 10 |  |  |  |
| Ab0941 (antibody, V domains shown) VH: EVQLVESGGGLVQPGGSLRLSCAASGFDFSSYSIHWVRQAPGKGLEWVASISPYYGATYYADSVKGRFTISADTSKNTAYLQMNSLRAEDTAVYYCARYYEWYKYDLYLGSLGFDYWGQGTLVTVSS VL: DIQMTQSPSSLSASVGDRVTITCRASQSVSSAVAWYQQKPGKAPKLLIYSASSLYSGVPSRFSGSRSGTDFTLTISSLQPEDFATYYCQQGGYSLITFGQGTKVEIK | 3.7 |  |  |  |
| Ab0942 (antibody, V domains shown) VH: EVQLVESGGGLVQPGGSLRLSCAASGFDFSSYSIHWVRQAPGKGLEWVASISPYYGSTYYADSVKGRFTISADTSKNTAYLQMNSLRAEDTAVYYCARYYAWYKYDLYLGSLGFDYWGQGTLVTVSS VL: DIQMTQSPSSLSASVGDRVTITCRASQSVSSAVAWYQQKPGKAPKLLIYSASSLYSGVPSRFSGSRSGTDFTLTISSLQPEDFATYYCQQGGYSLITFGQGTKVEIK | 210 |  |  |  |
| Ab0943 (antibody, V domains shown) VH: EVQLVESGGGLVQPGGSLRLSCAASGFDFSSYSIHWVRQAPGKGLEWVASISPYYGSTYYADSVKGRFTISADTSKNTAYLQMNSLRAEDTAVYYCARYYEWYAYDLYLGSLGFDYWGQGTLVTVSS VL: DIQMTQSPSSLSASVGDRVTITCRASQSVSSAVAWYQQKPGKAPKLLIYSASSLYSGVPSRFSGSRSGTDFTLTISSLQPEDFATYYCQQGGYSLITFGQGTKVEIK | 130 |  |  |  |
| Ab0944 (antibody, V domains shown) VH: EVQLVESGGGLVQPGGSLRLSCAASGFDFSSYSIHWVRQAPGKGLEWVASISPYYGSTYYADSVKGRFTISADTSKNTAYLQMNSLRAEDTAVYYCARYYEWYKYALYLGSLGFDYWGQGTLVTVSS VL: DIQMTQSPSSLSASVGDRVTITCRASQSVSSAVAWYQQKPGKAPKLLIYSASSLYSGVPSRFSGSRSGTDFTLTISSLQPEDFATYYCQQGGYSLITFGQGTKVEIK | 7.1 |  |  |  |
| Ab0946 (antibody, V domains shown) VH: EVQLVESGGGLVQPGGSLRLSCAASGFDFSSYSIHWVRQAPGKGLEWVASISPYYGSTYYADSVKGRFTISADTSKNTAYLQMNSLRAEDTAVYYCARYYEWYKYDLYLGSLAFDYWGQGTLVTVSS VL: DIQMTQSPSSLSASVGDRVTITCRASQSVSSAVAWYQQKPGKAPKLLIYSASSLYSGVPSRFSGSRSGTDFTLTISSLQPEDFATYYCQQGGYSLITFGQGTKVEIK | 50 |  |  |  |
| Ab0947 (antibody, V domains shown) VH: EVQLVESGGGLVQPGGSLRLSCAASGFDFSSYSIHWVRQAPGKGLEWVASISPYYGSTYYADSVKGRFTISADTSKNTAYLQMNSLRAEDTAVYYCARYYEWYKYDLYLGSLGFAYWGQGTLVTVSS VL: DIQMTQSPSSLSASVGDRVTITCRASQSVSSAVAWYQQKPGKAPKLLIYSASSLYSGVPSRFSGSRSGTDFTLTISSLQPEDFATYYCQQGGYSLITFGQGTKVEIK | 52 |  |  |  |
| Ab0948 (antibody, V domains shown) VH: EVQLVESGGGLVQPGGSLRLSCAASGFDFSSYSIHWVRQAPGKGLEWVASISPYYGSTYYADSVKGRFTISADTSKNTAYLQMNSLRAEDTAVYYCARYYEWYKYDLYLGSLGFDAWGQGTLVTVSS VL: DIQMTQSPSSLSASVGDRVTITCRASQSVSSAVAWYQQKPGKAPKLLIYSASSLYSGVPSRFSGSRSGTDFTLTISSLQPEDFATYYCQQGGYSLITFGQGTKVEIK | 7.3 |  |  |  |
| Ab1011 (antibody, V domains shown) VH: EVQLVESGGGLVQPGGSLRLSCAASGFTFSNYWMNWVRQAPGKGLEWVAQIRVKSENFATHYADSVKGRFTISRDDSKSTVYLQMNSLRAEDTAVYYCTRYDGFSWGQGTLVTVSS VL: DIQMTQSPSSLSASVGDRVTITCSASSSVSSGNFHWYQQKPGKAPKLLIYRTSNLASGVPSRFSGSGSGTDYTLTISSLQPEDFATYYCQQWSGYPYTFGQGTKVEIKR |  | 9.9 |  |  |
| Ab1012 (antibody, V domains shown) VH: EVQLVESGGGLVQPGGSLRLSCAASGFTFSSYWMNWVRQAPGKGLEWVAQIRVKSENFATHYADSVKGRFTISRDDSKSTVYLQMNSLRAEDTAVYYCTLYDGFSWGQGTLVTVSS VL: DIQMTQSPSSLSASVGDRVTITCSASSSVSSGNFHWYQQKPGKAPKLLIYRTSNLASGVPSRFSGSGSGTDYTLTISSLQPEDFATYYCQQWSGYPYTFGQGTKVEIK |  | 6.2 | 9.7 |  |
| Ab1016 (antibody, V domains shown) VH: EVQLVESGGGLVQPGGSLRLSCAASGFTFSNYYMNWVRQAPGKGLEWVAQIRVKSENFATHYADSVKGRFTISRDDSKSTVYLQMNSLRAEDTAVYYCTLYDGFSWGQGTLVTVSS VL: DIQMTQSPSSLSASVGDRVTITCSASSSVSSGNFHWYQQKPGKAPKLLIYRTSNLASGVPSRFSGSGSGTDYTLTISSLQPEDFATYYCQQWSGYPYTFGQGTKVEIK |  | 7.7 | 7.2 |  |
| Ab1017 (antibody, V domains shown) VH: EVQLVESGGGLVQPGGSLRLSCAASGFTFSNYWMSWVRQAPGKGLEWVAQIRVKSENFATHYADSVKGRFTISRDDSKSTVYLQMNSLRAEDTAVYYCTLYDGFSWGQGTLVTVSS VL: DIQMTQSPSSLSASVGDRVTITCSASSSVSSGNFHWYQQKPGKAPKLLIYRTSNLASGVPSRFSGSGSGTDYTLTISSLQPEDFATYYCQQWSGYPYTFGQGTKVEIK |  | 4.5 | 7.6 |  |
| Ab1018 (antibody, V domains shown) VH: EVQLVESGGGLVQPGGSLRLSCAASGFTFSNYWMNWVRQAPGKGLEWVAQIRVKSENFATHYADSVKGRFTISRDDSKSTVYLQMNSLRAEDTAVYYCTLYEGFSWGQGTLVTVSS VL: DIQMTQSPSSLSASVGDRVTITCSASSSVSSGNFHWYQQKPGKAPKLLIYRTSNLASGVPSRFSGSGSGTDYTLTISSLQPEDFATYYCQQWSGYPYTFGQGTKVEIK |  | 2.1 | 3 | Kd [3]: 1.6 nM; Kd [4]: 2.8 nM |
| Ab1021 (antibody, V domains shown) VH: EVQLVESGGGLVQPGGSLRLSCAASGFTFSNYWMNWVRQSPGKGLEWVAQIRVKSENFATHYADSVKGRFTISRDDSKSTVYLQMNSLRAEDTAVYYCTLYDGFSWGQGTLVTVSS VL: DIQMTQSPSSLSASVGDRVTITCSASSSVSSGNFHWYQQKPGKAPKLLIYRTSNLASGVPSRFSGSGSGTDYTLTISSLQPEDFATYYCQQWSGYPYTFGQGTKVEIK |  | 2.3 | 3.1 |  |
| Ab1023 (antibody, V domains shown) VH: EVQLVESGGGLVQPGGSLRLSCAASGFTFSNYWMNWVRQAPGKGLEWVAQIRVKYENFATHYADSVKGRFTISRDDSKSTVYLQMNSLRAEDTAVYYCTLYDGFSWGQGTLVTVSS VL: DIQMTQSPSSLSASVGDRVTITCSASSSVSSGNFHWYQQKPGKAPKLLIYRTSNLASGVPSRFSGSGSGTDYTLTISSLQPEDFATYYCQQWSGYPYTFGQGTKVEIK |  | 0.9 | 2 |  |
| Ab1066 (antibody, V domains shown) VH: EVQLVESGGGLVQPGGSLRLSCAASGFTFSNYWMNWVRQAPGKGLEWVAQIRVKSENFATHYADSVKGRFTISRDDSKSTVYLQMNSLRAEDTAVYYCTLYDAFSWGQGTLVTVSS VL: DIQMTQSPSSLSASVGDRVTITCSASSSVSSGNFHWYQQKPGKAPKLLIYRTSNLASGVPSRFSGSGSGTDYTLTISSLQPEDFATYYCQQASGYPYTFGQGTKVEIK |  |  |  | Kd [3]: 3 nM; Kd [4]: 5.7 nM |

Reference: patent publication US20240190987A1, “Engineered EpCam Binding Antibodies” (TigaTX, priority 2021, published 2024)
